{
  "source": "patent US20240002540A1",
  "about": "(KEYMED BIOSCIENCES CHENGDU, published 2024)",
  "key": {"[1]": {"target": "T1, Cynomolgus monkey CD3εγ-Fc heterodimer (cynomolgus monkey)", "T1 construct": "also called cynomolgus monkey CD3εγ protein", "T1 chain 1": "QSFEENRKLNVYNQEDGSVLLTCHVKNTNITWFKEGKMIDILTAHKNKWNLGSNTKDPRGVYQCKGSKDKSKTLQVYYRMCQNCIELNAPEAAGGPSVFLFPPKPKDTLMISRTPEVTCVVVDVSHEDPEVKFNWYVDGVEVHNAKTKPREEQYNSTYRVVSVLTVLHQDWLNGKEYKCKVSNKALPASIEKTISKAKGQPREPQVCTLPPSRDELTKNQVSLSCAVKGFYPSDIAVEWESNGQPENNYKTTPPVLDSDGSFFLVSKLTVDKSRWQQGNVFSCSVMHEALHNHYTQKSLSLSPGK", "T1 chain 2": "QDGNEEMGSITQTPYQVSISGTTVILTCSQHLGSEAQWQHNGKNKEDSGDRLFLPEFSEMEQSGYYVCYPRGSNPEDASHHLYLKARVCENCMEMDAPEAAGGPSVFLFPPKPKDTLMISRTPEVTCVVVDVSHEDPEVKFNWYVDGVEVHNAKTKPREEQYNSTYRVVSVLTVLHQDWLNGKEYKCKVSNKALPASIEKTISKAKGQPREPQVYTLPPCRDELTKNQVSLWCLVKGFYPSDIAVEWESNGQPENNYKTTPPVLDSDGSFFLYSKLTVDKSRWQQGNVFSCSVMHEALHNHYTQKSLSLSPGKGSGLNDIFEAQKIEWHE", "experiment": "ELISA on coated cynomolgus monkey CD3εγ protein (panel 'Monkey CD3εγ dimer')", "protocol": "Human CD3εγ protein and cynomolgus monkey CD3εγ protein were coated separately overnight at 4° C. After blocking with 2% skim milk, different dilutions of CD3 antibody were added to each well and incubated for 1 hour. After the secondary antibody was developed by adding HPR-labeled goat anti-human IgG Fc and TMB solution, the reaction was stopped with concentrated sulfuric acid, and the absorbance was read at 450 nm."}, "[2]": {"target": "T2, human CD3 on T cells (Jurkat cells; human peripheral blood CD4+ and CD8+ T-cells) (human, UniProt P07766 23-207)", "T2 construct": "whole, on cells; the other chains of the complex are present on the cells; also called CD4T; CD4 + T", "experiment": "flow cytometry on Jurkat cells", "protocol": "The cells were adjusted to 5×10^5 cells/mL with 4% calf serum, 100 μL/well was added to 96-well U-plate, 300 g was centrifuged to removed the supernatant, 100 μL/well of gradient diluted antibody (initial concentration: 1800 nM, 3-fold dilution, 10 gradients) was added and incubated at 4° C. for 60 min. […] 50 μL/well PI was added after washing once, incubated for 5 min, and detected with flow cytometer (BD C6)."}, "human BCMA on cells [3]": {"target": "T3, human BCMA on cells (human, UniProt Q02223 1-184)", "T3 construct": "whole, on cells; also called Human BCMA-CHO; CHO-hBCMA", "T3 sequence (looked up)": "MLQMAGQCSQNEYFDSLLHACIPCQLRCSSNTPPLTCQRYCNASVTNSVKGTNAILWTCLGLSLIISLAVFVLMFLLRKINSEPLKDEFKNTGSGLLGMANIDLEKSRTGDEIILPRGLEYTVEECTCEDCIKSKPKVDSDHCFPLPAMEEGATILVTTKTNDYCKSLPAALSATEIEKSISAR", "experiment": "flow cytometry on NCI-H929 cells", "protocol": "(§1) 50 μL/well Alexa Fluro647 labeled goat anti-human IgG Fc (1: 300 dilution) were added to the secondary antibody, incubated on ice for 20 min, added with 50 μL/well PI solution (1: 300) after washing once, incubated for 5 min, and flow cytometer was used to make detection."}, "human BCMA on cells [4]": {"target": "T3, human BCMA on cells", "experiment": "flow cytometry on RPMI-8226 cells", "protocol": "as §1"}, "human BCMA on cells [5]": {"target": "T3, human BCMA on cells", "experiment": "flow cytometry on CHO-human BCMA cells", "protocol": "as §1"}, "[6]": {"target": "T2, human CD3 on T cells (Jurkat cells; …)", "experiment": "flow cytometry on human peripheral blood CD4+ T-cells", "protocol": "(§2) Fresh human peripheral blood was taken and PBMC was isolated by Ficoll. Paque Plu (GE, 17-1440-03). PBMC was adjusted to 5×10⁵ cells/mL with 4% calf serum (Hyclone, SH30626.06), 100 μL/well was added to a 96-well U-plate, the supernatant was centrifuged off and 100 μL of gradient diluted antibody (with starting concentration of 1800 nM, 3-fold dilution, 10 gradients) was added to each well and incubated for 60 min at 4° C. 50 μL/well of Alexa Fluro647 labeled goat anti-human IgG Fc (1: 300 dilution) was added to the secondary antibody, with ice bath for 20 min, and 50 μL/well PI added after washing once, incubated for 5 min, and flow cytometer (BD C6) was used for detection. The control antibody REGN5458 was synthesized and prepared according to US20200024356."}, "[7]": {"target": "T2, human CD3 on T cells (Jurkat cells; …)", "experiment": "flow cytometry on human peripheral blood CD8+ T-cells", "protocol": "as §2"}, "[8]": {"target": "T4, human CD3εγ-Fc heterodimer (human)", "T4 construct": "also called human CD3εγ protein; human CD3εγ recombinant protein", "T4 chain 1": "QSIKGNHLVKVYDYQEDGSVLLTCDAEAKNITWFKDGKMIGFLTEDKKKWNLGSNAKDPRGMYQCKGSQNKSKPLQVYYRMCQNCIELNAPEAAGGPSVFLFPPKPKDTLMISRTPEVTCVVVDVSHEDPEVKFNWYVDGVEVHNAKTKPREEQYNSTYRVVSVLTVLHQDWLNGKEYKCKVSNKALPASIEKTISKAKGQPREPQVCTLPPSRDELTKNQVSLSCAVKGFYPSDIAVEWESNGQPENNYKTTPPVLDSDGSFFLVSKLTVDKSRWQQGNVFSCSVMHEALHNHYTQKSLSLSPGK", "T4 chain 2": "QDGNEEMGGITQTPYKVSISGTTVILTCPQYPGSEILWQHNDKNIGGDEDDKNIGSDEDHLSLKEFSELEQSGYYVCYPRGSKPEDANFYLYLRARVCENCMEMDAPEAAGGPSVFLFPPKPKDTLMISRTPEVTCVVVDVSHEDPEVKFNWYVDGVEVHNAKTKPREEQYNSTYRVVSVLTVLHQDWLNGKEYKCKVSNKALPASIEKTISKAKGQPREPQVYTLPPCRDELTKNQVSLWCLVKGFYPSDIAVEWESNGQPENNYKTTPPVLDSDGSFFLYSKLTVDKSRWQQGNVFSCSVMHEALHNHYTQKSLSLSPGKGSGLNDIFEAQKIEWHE", "experiment": "SPR (Biacore T200), antigen amine-coupled to CM5 chip, antibody as analyte, 1:1 model", "protocol": "(§3) 10 μg/mL human or cynomolgus monkey BCMA or CD3εγ recombinant antigen was bound to a CM5 chip (GE healthcare) by amino conjugating, while the amount of antigen bound was controlled to approximately 200 RU. After baseline plateau, gradient diluted antibodies (7 gradients of 2-fold dilutions from 10 μg/mL) were flowed through the chip at a flow rate of 30 μL/min for a binding time of 350 seconds and a dissociation time of 600 seconds. Kinetic constants were fitted using Biacore T200 evaluation software with a 1: 1 binding model."}, "[9]": {"target": "T1, Cynomolgus monkey CD3εγ-Fc heterodimer", "experiment": "SPR (Biacore T200), antigen amine-coupled to CM5 chip, antibody as analyte, 1:1 model", "protocol": "as §3"}, "[10]": {"target": "T5, human BCMA recombinant antigen (human, UniProt Q02223 1-54, limits assumed)", "T5 sequence (looked up)": "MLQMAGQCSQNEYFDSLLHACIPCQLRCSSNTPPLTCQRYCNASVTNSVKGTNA", "experiment": "SPR (Biacore T200), antigen amine-coupled to CM5 chip, antibody as analyte, 1:1 model", "protocol": "as §3"}, "[11]": {"target": "cynomolgus monkey BCMA recombinant antigen (cynomolgus monkey, UniProt A0A2K5UD97 1-53)", "sequence (A0A2K5UD97 entry or part of it)": "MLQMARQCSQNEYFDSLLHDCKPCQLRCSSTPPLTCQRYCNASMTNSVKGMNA", "experiment": "SPR (Biacore T200), antigen amine-coupled to CM5 chip, antibody as analyte, 1:1 model", "protocol": "as §3"}, "[12]": {"target": "T2, human CD3 on T cells (Jurkat cells; …)", "experiment": "flow cytometry on human peripheral blood CD4+ T cells"}, "[13]": {"target": "T2, human CD3 on T cells (Jurkat cells; …)", "experiment": "flow cytometry on human peripheral blood CD8+ T cells"}},
  "data": [
    {"binder": "aCD3-hVH9/VL2 (antibody, human IgG4, V domains shown, also called humanized anti-CD3 antibody hVH9/VL2) VH: EVQLVESGGGLVQPGGSLRLSCAASGFTFNTYAMNWVRKAPGKGLEWVGRIRSKYNNYATYYADSVKDRFTISRDDSKNSLYLQMNSLKTEDTAVYYCVRHGNFGNSYVSWFAYWGQGTLVTVSS VL: QAVVTQEPSLTVSPGGTVTLTCRSSTGAVTTSNYANWVQEKPGQAPRGLIGGTNKRAPWTPARFSGSLLGGKAALTLSGAQPEDEAEYYCALWYSNLWVFGGGTKLTVL", "values": [
      {"measurement": "EC50 (read off the curve)", "setting": "[1]", "value": "~0.04", "unit": "ng/mL"}
    ]},
    {"binder": "aCD3-hVH9/VL5 (antibody, human IgG4, V domains shown, also called humanized anti-CD3 antibody hVH9/VL5) VH: EVQLVESGGGLVQPGGSLRLSCAASGFTFNTYAMNWVRKAPGKGLEWVGRIRSKYNNYATYYADSVKDRFTISRDDSKNSLYLQMNSLKTEDTAVYYCVRHGNFGNSYVSWFAYWGQGTLVTVSS VL: QAVVTQEPSLTVSPGGTVTLTCRSSTGAVTTSNYANWVQEKPGQAPRGLIGGTNKRAPWTPARFSGSLLGGKAALTITGAQAEDEAEYYCVLWYSNLWVFGGGTKLTVL", "values": [
      {"measurement": "EC50 (read off the curve)", "setting": "[1]", "value": "~0.06", "unit": "ng/mL"}
    ]},
    {"binder": "BCMA×CD3 κλ006 (bispecific antibody, human IgG4 S228P, kappa, lambda) light 1: DIVLTQSPASLAVSPGQRATITCRASKSVTTSGYSYIHWYQKKPGQPPKLLIYLASDLEAGVPARFSGSGSGTDFTLTINPVEAEDTANYYCQHSRELPWTFGQGTKVEIKRTVAAPSVFIFPPSDEQLKSGTASVVCLLNNFYPREAKVQWKVDNALQSGNSQESVTEQDSKDSTYSLSSTLTLSKADYEKHKVYACEVTHQGLSSPVTKSFNRGEC heavy 1: QVQLVQSGSELKKPGASVKVSCKASGYIFTNFGMNWVREAPGQGLEWMGWINTYTGEQIYADGFTGRFVFSLDTSASTAYLQISSLKAEDTAVYFCARGEIYYGYDVGFVYWGQGTLVTVSSASTKGPSVFPLAPCSRSTSESTAALGCLVKDYFPEPVTVSWNSGALTSGVHTFPAVLQSSGLYSLSSVVTVPSSSLGTKTYTCNVDHKPSNTKVDKRVESKYGPPCPPCPAPEFEGGPSVFLFPPKPKDTLMISRTPEVTCVVVDVSQEDPEVQFNWYVDGVEVHNAKTKPREEQFNSTYRVVSVLTVLHQDWLNGKEYKCKVSNKGLASSIEKTISKAKGQPREPQVCTLPPSQEEMTKNQVSLSCAVKGFYPSDIAVEWESNGQPENNYKTTPPVLDSDGSFFLVSKLTVDKSRWQEGNVFSCSVMHEALHNHYTQKSLSLSLGK light 2: QAVVTQEPSLTVSPGGTVTLTCRSSTGAVTTSNYANWVQEKPGQAPRGLIGGTNKRAPWTPARFSGSLLGGKAALTITGAQAEDEAEYYCVLWYSNLWVFGGGTKLTVLGQPKAAPSVTLFPPSSEELQANKATLVCLISDFYPGAVTVAWKADSSPVKAGVETTTPSKQSNNKYAASSYLSLTPEQWKSHRSYSCQVTHEGSTVEKTVAPTECS heavy 2: EVQLVESGGGLVQPGGSLRLSCAASGFTFNTYAMNWVRKAPGKGLEWVGRIRSKYNNYATYYADSVKDRFTISRDDSKNSLYLQMNSLKTEDTAVYYCVRHGNFGNSYVSWFAYWGQGTLVTVSSASTKGPSVFPLAPCSRSTSESTAALGCLVKDYFPEPVTVSWNSGALTSGVHTFPAVLQSSGLYSLSSVVTVPSSSLGTKTYTCNVDHKPSNTKVDKRVESKYGPPCPPCPAPEFEGGPSVFLFPPKPKDTLMISRTPEVTCVVVDVSQEDPEVQFNWYVDGVEVHNAKTKPREEQFNSTYRVVSVLTVLHQDWLNGKEYKCKVSNKGLASSIEKTISKAKGQPREPQVYTLPPCQEEMTKNQVSLWCLVKGFYPSDIAVEWESNGQPENNYKTTPPVLDSDGSFFLYSKLTVDKSRWQEGNVFSCSVMHEALHNHYTQKSLSLSLGK", "values": [
      {"measurement": "EC50", "setting": "[2]", "value": 56, "unit": "nM"},
      {"measurement": "EC50", "setting": "human BCMA on cells [3]", "value": 32, "unit": "nM"},
      {"measurement": "EC50", "setting": "human BCMA on cells [4]", "value": 19, "unit": "nM"},
      {"measurement": "EC50", "setting": "human BCMA on cells [5]", "value": 16, "unit": "nM"},
      {"measurement": "EC50", "setting": "[6]", "value": 91, "unit": "nM"},
      {"measurement": "EC50", "setting": "[7]", "value": 93, "unit": "nM"},
      {"measurement": "Kd", "setting": "[8]", "value": 27, "unit": "nM"},
      {"measurement": "Kd", "setting": "[9]", "value": 33, "unit": "nM"},
      {"measurement": "Kd", "setting": "[10]", "value": 1.2, "unit": "nM"},
      {"measurement": "Kd", "setting": "[11]", "value": 0.1, "unit": "nM"}
    ]},
    {"binder": "REGN5458 (antibody, V domains shown) VH: EVQLVESGGGLVQPGRSLRLSCAASGFTFDDYSMHWVRQAPGKGLEWVSGISWNSGSKGYADSVKGRFTISRDNAKNSLYLQMNSLRAEDTALYYCAKYGSGYGKFYHYGLDVWGQGTTVTVSS VL: not shown", "values": [
      {"measurement": "EC50 (read off the curve)", "setting": "[12]", "value": "~10", "unit": "nM"},
      {"measurement": "EC50 (read off the curve)", "setting": "[13]", "value": "~10", "unit": "nM"}
    ]}
  ]
}
